In patent US20030175925A1, “Nicotinamide ribonucleoside kinase” (priority 2001, published 2003):

Key:
[1] = discontinuous spectral NMNATse assay coupled to alcohol dehydrogenase (NAD to NADH, 340 nm); type: biochemical; settings: specific activity; 37° C., pH 7.5, 2 mM ATP, NMN substrate; 1 unit = 1 micromole NADH per minute
Protocol: The discontinuous spectral NMNATse assay procedure (used for both human NadD2_HS and NadR) coupled to alcohol dehydrogenase (ADH) catalyzed conversion of NAD to NADH was adapted from Balducci, E., et al., Biochem. J., 310:395-400 (1995), as described in U.S. Ser. No. 09/550,398, filed Apr. 14, 2000. The assay was performed in disposable UV-transparent plastic cuvettes in a 6-cuvette autosampler of Beckman DU-640 set at 37° C. The 500 μL mixture contained 100 mM HEPES, pH 7.5, 115 mM ethanol, 40 mM semicarbazide, 2 mM ATP, 3 units of ADH (Sigma), and 0.2-2 milliunits of NMNATse (0.1-10 μg depending on specific activity). A reaction was initiated by adding 10 μL of 50 mM NMN, and monitored at 340 nm over 20 minutes. An extinction coefficient of NADH equal to 6.22 mM^−1 cm^−1 was used for rate calculations. One unit of enzyme was defined as a quantity capable of producing 1 micromole of NADH per minute.

[2] = discontinuous spectral NRKse assay coupled to NadD2_HS (NMNATse) and ADH; type: biochemical; settings: for NRKse and NMNATse activity (summary in words): NMNATse and NRKse assays together; for RATIO: ratio NmR Kinase / NMNATse specific activity; for NmR Kinase: specific activity, 37° C., pH 8.0, 0.8 mM NmR, ATP, 1 unit = 1 micromole NADH per minute
Protocol: The discontinuous spectral NRKse assay was based on enzymatic coupling of NmR→NMN conversion to production of NAD, catalyzed by excess amounts of recombinant purified NadD2_HS enzyme (NMNATse). NAD production was further coupled to NADH conversion by ADH, as in the NMNATse assay described above.
The assay was performed in disposable UV-transparent plastic cuvettes in a 6-cuvette autosampler of Beckman DU-640 set at 37° C. The 500 μL mixture contained 100 mM Tris/HCl pH 8.0, 115 mM ethanol, 40 mM semicarbazide, 0.8 mM NmR, 0.15 units of NadD2_HS, 3 units of ADH (Sigma), and 0.2-2 milliunits of NRKse (0.2-2 μg, depending on the specific activity). A reaction was initiated by adding 50 μL of 50 mM ATP, and monitored at 340 nm over 20 minutes. An extinction coefficient of NADH equal to 6.22 mM^−1 cm^−1 was used for rate calculations. One unit of enzyme was defined as a quantity capable of producing 1 micromole of NADH per minute.

B1: NadR H. influenzae: N-truncated NadR protein from H. influenzae, amino acids 38-407, both NMNATse and NRKse domains (protein, UniProt P44308 38-407, looked up, fragment)
chain: YNKHTQFLRYQEQIMSKTKEKKVGVIFGKFYPVHTGHINMIYEAFSKVDELHVIVCSDTVRDLKLFYDSKMKRMPTVQDRLRWMQQIFKYQKNQIFIHHLVEDGIPSYPNGWQSWSEAVKTLFHEKHFEPSIVFSSEPQDKAPYEKYLGLEVSLVDPDRTFFNVSATKIRTTPFQYWKFIPKEARPFFAKTVAILGGESSGKSVLVNKLAAVFNTTSAWEYGREFVFEKLGGDEQAMQYSDYPQMALGHQRYIDYAVRHSHKIAFIDTDFITTQAFCIQYEGKAHPFLDSMIKEYPFDVTILLKNNTEWVDDGLRSLGSQKQRQQFQQLLKKLLDKYKVPYIEIESPSYLDRYNQVKAVIEKVLNEEEIS
In the case of B1, the NMNATse [1] is reported as 0.9 Un/mg, the “NRKse and NMNATse activity (summary in words)” value [2] is reported as “possess NRKse activity in addition to NMNATse activity” and the RATIO [2] is reported as 0.02. The “NmR Kinase” value [2] was 0.02 Un/mg.

B2: NadR H. influenzae; N-terminal domain: N-terminal domain of NadR from H. influenzae, amino acids 38-212, only NMNATse domain (protein, UniProt P44308 38-212, looked up, fragment)
chain: YNKHTQFLRYQEQIMSKTKEKKVGVIFGKFYPVHTGHINMIYEAFSKVDELHVIVCSDTVRDLKLFYDSKMKRMPTVQDRLRWMQQIFKYQKNQIFIHHLVEDGIPSYPNGWQSWSEAVKTLFHEKHFEPSIVFSSEPQDKAPYEKYLGLEVSLVDPDRTFFNVSATKIRTTPFQ
For B2, the NMNATse [1] was 3 Un/mg, the RATIO [2] was less than 0.001 and the “NmR Kinase” value [2] was less than 0.003 Un/mg.

B3: NadR Salmonella: full-size NadR protein from Salmonella typhimurium, all three domains (HTH, NMNATse, NRKse), His-tagged recombinant (protein, UniProt P24518 1-410, looked up)
chain: MSSFDYLKTAIKQQGCTLQQVADASGMTKGYLSQLLNAKIKSPSAQKLEALHRFLGLEFPRRQKNIGVVFGKFYPLHTGHIYLIQRACSQVDELHIIMGYDDTRDRGLFEDSAMSQQPTVSDRLRWLLQTFKYQKNIRIHAFNEEGMEPYPHGWDVWSNGIKAFMAEKGIQPSWIYTSEEADAPQYLEHLGIETVLVDPERTFMNISGAQIRENPFRYWEYIPTEVKPFFVRTVAILGGESSGKSTLVNKLANIFNTTSAWEYGRDYVFSHLGGDEMALQYSDYDKIALGHAQYIDFAVKYANKVAFIDTDFVTTQAFCKKYEGREHPFVQALIDEYRFDLVILLENNTPWVADGLRSLGSSVDRKAFQNLLVEMLKENNIEFVHVKEADYDGRFLRCVELVKEMMGEQG
modifications: full-length His tag
notes: full-size NadR protein from Salmonella typhimurium, all three domains (HTH, NMNATse, NRKse), His-tagged recombinant
In the case of B3, the NMNATse [1] is reported as 0.04 Un/mg, the “NRKse and NMNATse activity (summary in words)” value [2] is reported as “possess NRKse activity in addition to NMNATse activity” and the RATIO [2] is reported as 125. For the same molecule, the “NmR Kinase” value [2] was 5 Un/mg.
